{"source": "paper PMC5259782", "about": "“Allosteric Inhibition of Phosphoenolpyruvate Carboxylases is Determined by a Single Amino Acid Residue in Cyanobacteria” (Scientific Reports, 2017)", "key": {"SyPEPC [1]": {"target": "T1, SyPEPC (Synechocystis sp. PCC 6803, UniProt P74299, E954K)", "T1 construct": "gene ppc", "assay": "malate dehydrogenase-coupled NADH assay, residual activity", "type": "biochemical", "details": "fumarate; allosteric"}, "SyPEPC [2]": {"target": "T2, SyPEPC (Synechocystis sp. PCC 6803, UniProt P74299)", "T2 construct": "gene ppc", "T2 sequence (P74299 1-1034)": "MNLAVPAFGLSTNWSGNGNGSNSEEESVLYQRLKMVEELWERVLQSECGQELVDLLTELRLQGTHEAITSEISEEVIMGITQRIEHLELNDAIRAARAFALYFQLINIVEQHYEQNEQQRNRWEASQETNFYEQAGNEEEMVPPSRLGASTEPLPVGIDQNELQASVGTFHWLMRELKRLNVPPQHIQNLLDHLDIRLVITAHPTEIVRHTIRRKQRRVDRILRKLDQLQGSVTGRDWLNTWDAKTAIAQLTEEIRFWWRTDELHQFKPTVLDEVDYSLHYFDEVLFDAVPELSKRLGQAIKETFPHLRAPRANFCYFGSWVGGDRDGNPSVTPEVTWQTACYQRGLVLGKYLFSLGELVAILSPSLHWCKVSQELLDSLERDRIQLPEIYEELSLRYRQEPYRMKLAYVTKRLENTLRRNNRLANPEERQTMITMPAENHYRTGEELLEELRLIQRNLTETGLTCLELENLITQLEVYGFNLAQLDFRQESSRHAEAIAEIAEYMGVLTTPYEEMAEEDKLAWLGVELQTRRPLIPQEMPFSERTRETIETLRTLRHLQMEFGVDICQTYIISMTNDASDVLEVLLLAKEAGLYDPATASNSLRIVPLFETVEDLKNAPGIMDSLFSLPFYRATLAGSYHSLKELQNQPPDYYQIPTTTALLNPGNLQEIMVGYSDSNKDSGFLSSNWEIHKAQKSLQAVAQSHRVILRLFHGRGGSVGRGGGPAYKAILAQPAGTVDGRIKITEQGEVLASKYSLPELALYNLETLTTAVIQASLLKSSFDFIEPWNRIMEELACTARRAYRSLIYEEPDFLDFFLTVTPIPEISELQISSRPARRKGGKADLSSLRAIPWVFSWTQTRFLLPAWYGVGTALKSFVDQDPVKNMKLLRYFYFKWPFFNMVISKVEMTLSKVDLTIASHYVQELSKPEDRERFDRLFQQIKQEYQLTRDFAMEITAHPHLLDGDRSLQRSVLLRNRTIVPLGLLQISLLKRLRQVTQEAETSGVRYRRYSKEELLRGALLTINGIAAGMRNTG", "assay": "malate dehydrogenase-coupled NADH assay, residual activity", "type": "biochemical", "details": "read-out: SyPEPC activity (in vitro)", "excerpt": "malate dehydrogenase-coupled NADH assay, residual activity on SyPEPC"}, "AnPEPC": {"target": "T3, AnPEPC (Nostoc sp. PCC 7120 = FACHB-418, UniProt P28594)", "T3 construct": "gene ppc", "assay": "malate dehydrogenase-coupled NADH assay, residual activity", "type": "biochemical", "details": "read-out: % activity remaining at 1 mM"}, "purified protein": {"substrate": "O=C(O)O", "assay": "purified protein", "details": "PEP"}, "[3]": {"substrate": "C=C(OP(=O)(O)O)C(=O)O", "assay": "malate dehydrogenase-coupled NADH assay (A340), Lineweaver-Burk", "type": "biochemical, Synechocystis sp. PCC 6803"}, "[4]": {"substrate": "C=C(OP(=O)(O)O)C(=O)O", "assay": "malate dehydrogenase-coupled NADH assay (A340), Lineweaver-Burk", "type": "biochemical, Nostoc sp. PCC 7120 = FACHB-418"}}, "data": [{"molecule": "O=C(O)/C=C/C(=O)O", "note": "[fumarate]", "values": [{"measurement": "% activity remaining", "setting": "SyPEPC [1]", "result": "The inhibitory effect of fumarate was also enhanced in SyPEPC_E954K compared with SyPEPC"}, {"measurement": "activity at 1000 µM", "setting": "SyPEPC [2]", "result": "75 ± 9.7", "unit": "%"}]}, {"molecule": "O=C(O)C[C@H](O)C(=O)O", "note": "[malate]", "values": [{"measurement": "remaining activity at 1000 µM", "setting": "AnPEPC", "result": "< 30", "unit": "%"}, {"measurement": "activity at 1000 µM", "setting": "SyPEPC [2]", "result": "77.1 ± 6.3", "unit": "%"}]}, {"molecule": "O=C(O)CCC(=O)O", "note": "[succinate]", "values": [{"measurement": "activity at 1000 µM", "setting": "SyPEPC [2]", "result": "124 ± 12.3", "unit": "%"}]}, {"molecule": "SyPEPC (Synechocystis sp. PCC 6803 substr. Kazusa; E954K) (protein) MNLAVPAFGLSTNWSGNGNGSNSEEESVLYQRLKMVEELWERVLQSECGQELVDLLTELRLQGTHEAITSEISEEVIMGITQRIEHLELNDAIRAARAFALYFQLINIVEQHYEQNEQQRNRWEASQETNFYEQAGNEEEMVPPSRLGASTEPLPVGIDQNELQASVGTFHWLMRELKRLNVPPQHIQNLLDHLDIRLVITAHPTEIVRHTIRRKQRRVDRILRKLDQLQGSVTGRDWLNTWDAKTAIAQLTEEIRFWWRTDELHQFKPTVLDEVDYSLHYFDEVLFDAVPELSKRLGQAIKETFPHLRAPRANFCYFGSWVGGDRDGNPSVTPEVTWQTACYQRGLVLGKYLFSLGELVAILSPSLHWCKVSQELLDSLERDRIQLPEIYEELSLRYRQEPYRMKLAYVTKRLENTLRRNNRLANPEERQTMITMPAENHYRTGEELLEELRLIQRNLTETGLTCLELENLITQLEVYGFNLAQLDFRQESSRHAEAIAEIAEYMGVLTTPYEEMAEEDKLAWLGVELQTRRPLIPQEMPFSERTRETIETLRTLRHLQMEFGVDICQTYIISMTNDASDVLEVLLLAKEAGLYDPATASNSLRIVPLFETVEDLKNAPGIMDSLFSLPFYRATLAGSYHSLKELQNQPPDYYQIPTTTALLNPGNLQEIMVGYSDSNKDSGFLSSNWEIHKAQKSLQAVAQSHRVILRLFHGRGGSVGRGGGPAYKAILAQPAGTVDGRIKITEQGEVLASKYSLPELALYNLETLTTAVIQASLLKSSFDFIEPWNRIMEELACTARRAYRSLIYEEPDFLDFFLTVTPIPEISELQISSRPARRKGGKADLSSLRAIPWVFSWTQTRFLLPAWYGVGTALKSFVDQDPVKNMKLLRYFYFKWPFFNMVISKVEMTLSKVDLTIASHYVQELSKPEDRERFDRLFQQIKQEYQLTRDFAMKITAHPHLLDGDRSLQRSVLLRNRTIVPLGLLQISLLKRLRQVTQEAETSGVRYRRYSKEELLRGALLTINGIAAGMRNTG", "values": [{"measurement": "Km", "setting": "purified protein; 10 mM MgCl2", "result": 0.76, "unit": "mM"}, {"measurement": "Km", "setting": "[3]; 50 mM NaHCO3, 10 mM MgCl2", "result": 0.82, "unit": "mM"}]}, {"molecule": "SyPEPC (Synechocystis sp. PCC 6803 substr. Kazusa) (protein) MNLAVPAFGLSTNWSGNGNGSNSEEESVLYQRLKMVEELWERVLQSECGQELVDLLTELRLQGTHEAITSEISEEVIMGITQRIEHLELNDAIRAARAFALYFQLINIVEQHYEQNEQQRNRWEASQETNFYEQAGNEEEMVPPSRLGASTEPLPVGIDQNELQASVGTFHWLMRELKRLNVPPQHIQNLLDHLDIRLVITAHPTEIVRHTIRRKQRRVDRILRKLDQLQGSVTGRDWLNTWDAKTAIAQLTEEIRFWWRTDELHQFKPTVLDEVDYSLHYFDEVLFDAVPELSKRLGQAIKETFPHLRAPRANFCYFGSWVGGDRDGNPSVTPEVTWQTACYQRGLVLGKYLFSLGELVAILSPSLHWCKVSQELLDSLERDRIQLPEIYEELSLRYRQEPYRMKLAYVTKRLENTLRRNNRLANPEERQTMITMPAENHYRTGEELLEELRLIQRNLTETGLTCLELENLITQLEVYGFNLAQLDFRQESSRHAEAIAEIAEYMGVLTTPYEEMAEEDKLAWLGVELQTRRPLIPQEMPFSERTRETIETLRTLRHLQMEFGVDICQTYIISMTNDASDVLEVLLLAKEAGLYDPATASNSLRIVPLFETVEDLKNAPGIMDSLFSLPFYRATLAGSYHSLKELQNQPPDYYQIPTTTALLNPGNLQEIMVGYSDSNKDSGFLSSNWEIHKAQKSLQAVAQSHRVILRLFHGRGGSVGRGGGPAYKAILAQPAGTVDGRIKITEQGEVLASKYSLPELALYNLETLTTAVIQASLLKSSFDFIEPWNRIMEELACTARRAYRSLIYEEPDFLDFFLTVTPIPEISELQISSRPARRKGGKADLSSLRAIPWVFSWTQTRFLLPAWYGVGTALKSFVDQDPVKNMKLLRYFYFKWPFFNMVISKVEMTLSKVDLTIASHYVQELSKPEDRERFDRLFQQIKQEYQLTRDFAMEITAHPHLLDGDRSLQRSVLLRNRTIVPLGLLQISLLKRLRQVTQEAETSGVRYRRYSKEELLRGALLTINGIAAGMRNTG", "values": [{"measurement": "Km", "setting": "purified protein; 10 mM MgCl2, pH 7.3, 30 °C, pH 7.3, 30.0 °C", "result": 0.80, "unit": "mM"}, {"measurement": "Km", "setting": "[3]; 50 mM NaHCO3, 10 mM MgCl2, pH 7.3, 30 °C", "result": 0.34, "unit": "mM"}]}, {"molecule": "AnPEPC (Nostoc sp. PCC 7120 = FACHB-418) (protein) MGSVLYSLSESANLYPASELFLRHRLQIVEELWESVLRQECGQNMVDLLRQLRDLCSPEGQATKDQAVSAVKLIEQLNINEAIRAARAFALYFQLINIIEQEYEQRQQLTRYSDLEAETAPLNGSENITSSSNHNEDDVIFNRGLGTDFLGKNWTNRGQGKQKGTFAALFPLLSKLNVPPQQIQRLISQLDVRLVFTAHPTEIVRHTIRDKQRQVVDLLQQLDEVENRAKDGGGYPWEAGEIREKLLEEIRLWWRTDELHQFKPTVLDEVDYALHYFQEVLFDGIPQLYKRFKYALNQTFSWLEPPSKDFCSFGSWVGSDRDGNPSVTPEITWQTACYQRKMVLERYIKSVTQLIELLSISMHWSDVLPDLLESLELDQSQLSEVYDALALRYRQEPYRLKLAYVLKRLENTRDRNLALYKGETPTNEDSPMYRSGSEFLAELRLIQHNLTETGLSCRELDNLICQVEIFDFNLTKLDIRQESTRHSDALNEILDYLQLLPQPYNDLSEEQRVAWLTTELQTRRPLISSELPFSDKTNDVIKTFRVVRSLQQEFGINICQTYIISMCRQVSDVLEVLLLAKEARLFDPAIAVGTIQVVPLFETVEDLQRSRSVMRQLFELPLYRALLAGGYKNTEVKVPNTELTPQSPAPSPQSVLTPDLQEVMLGYSDSNKDSGFLSSNWEIHKAQKSLQQIAEEYGVNLRIFHGRGGSVGRGGGPAHEAILAQPGHSINGRIKITEQGEVLASKYSLLDLALYNLETITTAVIQASLLRTGFDDIEPWNEIMEELAARSRQHYRGLIYEQPDFIDFFHQVTPIEEISQLQISSRPARRPSGKKDLSSLRAIPWVFSWTQTRFLLPSWYGVGTALQEFFNEEPEEHLKLMRYFYVKWPFFKMVISKVEMTLAKVDMQMAGHYVQELSDPEDKPRFEKVFEQIANEYYLTRDLVLKITDHGRLLDGDPVLQRSVQLRNGTIVPLGFIQVSLLKRLRQSKNNTATSGVIHSRYSKGELLRGALLTINGIAAGMRNTG", "values": [{"measurement": "Km", "setting": "purified protein; 10 mM MgCl2, pH and temperature not stated (optimum pH 8.0, 35 °C), pH 8.0, 35.0 °C", "result": 0.24, "unit": "mM"}, {"measurement": "Km", "setting": "[4]; 50 mM NaHCO3, 10 mM MgCl2, pH and temperature not stated (optimum pH 8.0, 35 °C)", "result": 1.1, "unit": "mM"}]}, {"molecule": "AnPEPC (Nostoc sp. PCC 7120 = FACHB-418; K946E) (protein) MGSVLYSLSESANLYPASELFLRHRLQIVEELWESVLRQECGQNMVDLLRQLRDLCSPEGQATKDQAVSAVKLIEQLNINEAIRAARAFALYFQLINIIEQEYEQRQQLTRYSDLEAETAPLNGSENITSSSNHNEDDVIFNRGLGTDFLGKNWTNRGQGKQKGTFAALFPLLSKLNVPPQQIQRLISQLDVRLVFTAHPTEIVRHTIRDKQRQVVDLLQQLDEVENRAKDGGGYPWEAGEIREKLLEEIRLWWRTDELHQFKPTVLDEVDYALHYFQEVLFDGIPQLYKRFKYALNQTFSWLEPPSKDFCSFGSWVGSDRDGNPSVTPEITWQTACYQRKMVLERYIKSVTQLIELLSISMHWSDVLPDLLESLELDQSQLSEVYDALALRYRQEPYRLKLAYVLKRLENTRDRNLALYKGETPTNEDSPMYRSGSEFLAELRLIQHNLTETGLSCRELDNLICQVEIFDFNLTKLDIRQESTRHSDALNEILDYLQLLPQPYNDLSEEQRVAWLTTELQTRRPLISSELPFSDKTNDVIKTFRVVRSLQQEFGINICQTYIISMCRQVSDVLEVLLLAKEARLFDPAIAVGTIQVVPLFETVEDLQRSRSVMRQLFELPLYRALLAGGYKNTEVKVPNTELTPQSPAPSPQSVLTPDLQEVMLGYSDSNKDSGFLSSNWEIHKAQKSLQQIAEEYGVNLRIFHGRGGSVGRGGGPAHEAILAQPGHSINGRIKITEQGEVLASKYSLLDLALYNLETITTAVIQASLLRTGFDDIEPWNEIMEELAARSRQHYRGLIYEQPDFIDFFHQVTPIEEISQLQISSRPARRPSGKKDLSSLRAIPWVFSWTQTRFLLPSWYGVGTALQEFFNEEPEEHLKLMRYFYVKWPFFKMVISKVEMTLAKVDMQMAGHYVQELSDPEDKPRFEKVFEQIANEYYLTRDLVLEITDHGRLLDGDPVLQRSVQLRNGTIVPLGFIQVSLLKRLRQSKNNTATSGVIHSRYSKGELLRGALLTINGIAAGMRNTG", "values": [{"measurement": "Km", "setting": "purified protein; 10 mM MgCl2", "result": 0.25, "unit": "mM"}, {"measurement": "Km", "setting": "[4]; 50 mM NaHCO3, 10 mM MgCl2", "result": 0.8, "unit": "mM"}]}]}
